Assay: yeast display, Sf9 membrane polyspecificity reagent, FACS + sequencing; frameworks hold sequencing errors
How it was run: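 Nanobodies came from a synthetic yeast display library in Saccharomyces cerevisiae BJ5465, induced with galactose for 36–48 hours and stained for 1 hour at 4 °C with 10% biotinylated, detergent-solubilized Sf9 membrane reagent. Cells were enriched on streptavidin microbeads and then FACS-sorted, with low and high (top ~1%) gates set on anti-HA fluorescence for expression and streptavidin fluorescence for reagent binding. Each polyreactivity label reflects the gate a clone came from. Genes were amplified by colony PCR, sequenced by MiSeq 2 × 250 and filtered by CDR length.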

| Sequence | polyreactivity (PSR sort gate) |
| --- | --- |
| QVQLVESGGGLVQAGGSLRLSCAASGNTFYVNAMGWYRQAPGKERELVATISKRGSSTYYADSVKGRFTISRDNAKNTVFLQMNSLKPEDTAVYYCNAEGPSYYYIIYDYWGQGTQVTVSS | high polyreactivity |
| QVQLVVSGGGLVQAGGSLSLSWAASGRIFSSYAMGWYRQAPGKERELDAAIDRTDSTYYADSVKGRFTISRDNAKNTVYLQMNSLIPEDTAVYYCAVLTYRYQSWGNYYLEYDYWGQGTEVTVSS | low polyreactivity |
| QVQLVESGGGLVQAGGSLRISCAASGRTFDINAMGWYSPAPGKERELVAAISSRGGTTFYADSVKGRFTISRDNAKNTVYLKMNSLKPEDSAVYYCAAVTSYYYTEEDYWGQGTQVTVSS | low polyreactivity |
| QVQLVESGGGLVQAGGSLRLSCAASGLTFRRYAMGWYRPAPGKEREFVAAITHNGGRTYYADSVKGRFTISRDNAKNTVYLQMNSLKPEDTAVYYCNAGGQRVNYDYWGQGTQVTVSS | high polyreactivity |
| QVQLVESGGGLVQAGGSLRLSCAASGFTFISYAMGWYRQAPGKERELVADISSSGDSTSYADSVKGRFTISRDNAKNTVYLQMNSLKPEDTAVYYCAAGDGYVYGEYDYWGQGTQVTVSS | low polyreactivity |
| QVQLVESGGGLVQAGGSLRLSCAASGHIFIRYAMGWYRQAPGKDRELVAASTGSGGSTYYADSVKGRFTISRDYAKNTVYLQMNSLKPEDTAVYYCAARTSKKYVPYDYWGQGTQVTVSS | high polyreactivity |
| QVQLVESGGGLVQAGGSLRLSCDASGIIFQYYAMGWYRHAPGKERELVAAISWSGGSTYYADSVKGRFTISRDNAKNTVYLQMNSLKPEDTAVYFCAARSRSFWPYEGDYWGQGTQVTLSS | low polyreactivity |
| QVQLVESGGGLVQAGGSLRLSCAASGFNFRYYAMGWYRQAPGKERELVAAISWSGGTTYYADSVKGRFTISRDNAKNTVYLQMNSLKPEDTAVYYCAARVARFSVPYDYWGQGTQVTVSS | low polyreactivity |
| QVQLVESGGGLVQAGGSLRLSCAASGSTYYSNAMGWYRPAPGKERELVAGIDTSDGSTNYADSVKGRFTISRDNAKNTVYLQMNSLKPEDTAVYYCAADYTQPGFVSYDYWGQGTQVTVSS | low polyreactivity |
| QVQLVESGGGLVQEGGSLRLSCAASGYIFKYYAMGWYRQAPGKERELVAAIRYSGGITYYADSVKGRFTISRDNAKNTVYLQMQSLKPEDTAVSYCAADYIITYRSGRREYVYWGQGTQVTVSS | high polyreactivity |
| QVQLVESGGGLVQAGGSLRLSCAASGRTFVVNVMGWYRQAPGKERELVAAISSVVSTNYADSVKGRFTISRDNAKNTVYLQMNCLKPEDTAVYYCAADVRGAYSTYLYTTTIRYDYWGQGTQVTVSS | low polyreactivity |
| QVQLVESGGGLVQAGGSLRLSCAASGSTFSRYAMGWYRQAPGKERDLVAAISWGGNTYYADSVKGRFTISRDNAKNTVYLQMNSLKPEDTAVYYCNRYSKLYNTMDYWGQGTQVTVSS | high polyreactivity |
| QVQLVESGGGLVQAGGSLRLSCAASGRIFGRYAMGWYRQAPGKEREVVATITRNGGGTYADSVKGRFTISRDNAKNTVYLQMNSLKPEDTAVYYCAVDTAAAWERRGFDSWGQGTQVTVSS | low polyreactivity |
| QVQLVESGGGLVQAGGSLSLSCAASGFTFAKYAMGWYRQAPGKERELVATISWSGGTTSYADSVKGRFTISRDNAKNTVYLQMNSLKPEDTAVYYCAALRYADYDYWGQGTQVTVSS | high polyreactivity |
| QVQLEESGGGLVQAGGSLRLSCAASGRTFSVNPMRWYRQAPGKERELVAAISWSTGSTYYADSVKGRFTISRDNAKNTVYLQMNSLKPEDTAVYYCAKLYEYRRSRYRTYGYWGQGTQVTVSS | high polyreactivity |
| QVQLVESGGGLVQAGGSLRLSCAASGRIFGVNAMGWYRPSPGKERELVADISSGGSTNYADSVKGRFTISRDNAKNTVYLQMNSLKPEDTAVYYCNARFRFRYKFPSRNSWGQGTQVTVSS | high polyreactivity |

| Sequence | polyreactivity (PSR sort gate) |
| --- | --- |
| QVQLVESGGGLVQAGGSLRLSCAASGGISYRYAMGWYRQAPGKERELVAAISGRGTSTYYADSVKGRFTISRDNAKNTVYLQMNSLKTEDTAVYYCNAQVGNFGYRSGGYDYWGQGTQVTVSS | high polyreactivity |
| QVQLVESGGGLVQAGGSLRLSCAASGSTFGVYALGWYIPAPGKERELVDRITWSGGSTYYADSVKGRFTISRDNAKNTVYLQMNSLKPEDTAVFYCAARAWWDWYSPLWYYYWGQGTQVTVSS | high polyreactivity |
| QVQLVESGGGLVQAGGSLRLSSAASGSIFFEYAMRWSRQAPGNEREWVASINRGGGSTYYADSVKGRFTISRDNAKNTVYLQMNSLKPEDTAVYYCAAQWKYRQSYLDYYWGQGTQVTVSS | low polyreactivity |
| QVQLVESGGGLVQAGGSLSLTCAASGRIFSYYAMGWYRQAPGKERELVAGISRGTSTYYADSVKGRFTISRDNAKNTVYLQMNSLKPEDTAVYYCAADYFSYYSPYRYGYWGQGTQVTVSS | high polyreactivity |
| QVQLVESGGGLVQAGGSLRLSCAASGRIFNRYAMGWYRQAPGKERELVAAISRGGGTNYADSVKGRFTISRDNAKNTVYLQMNSLKPEDTAVYYCAAARGHNVETSTTYDRGDYWGQGTQVTVSS | low polyreactivity |
| QVQLGESGGGLVQAGGSLRLTCAASGITFAYYVMGWYRKAPGKERELVAASTRSGDFTSYADSVKGRFTISRDNAKNTVYFQMNSLKPEDTAVYYCNARRGYQSRRYNYWGQGTQVTVSS | high polyreactivity |
| QVQLVESGGGLVQAGGSLRLSCAASGRIFYGYAMGWYRQAPGKERELVAAITSGSRTNYADSVKGRFTISRDNAKNTVYLQMNSLKPEDTAVYDCHSRYGSYLYSLVHNTRYDYWGQGTQVTVSS | low polyreactivity |
| QVQLLESGGGLVQAGGSLRLSCAASGFTLAFNAMGWYRQAPGKERELVASITSSSGSTYYADSVKGRFTISRDNAKNTVYLQLNSLKPEDTAVYYCARDLAIPQVLSQPIFGYWGQGTQVTVSS | low polyreactivity |
| QVQLVESGGGLVQAGGSLRLSCAASGSIFQRNAMGWYRQAPGKERELVAAISRSGGRTYYADSVKGRFTISRDNAKNTVYLQMNILKPEDTAVYYCAADSPYIQNRFEYWGQGTQVTVSS | high polyreactivity |
| QVQLVESGGGLVQAGGSLRLSCAASGSIFDSYAMGWYRQAPGKERELVATINTSGGSTYYADSVKGRFTIHDNAKNTVYLQKNSLKPEDTAVYYCNAGRWVYWQNNFGDYGYWGQGTQVTVSS | low polyreactivity |
| QVQHVESGGGLVQAGGSLRLSCAASGIIFGTNALGWYRQAPGKERELVAYITSGGSTYADSVKGRFTISRDNAKNTVYLQMNSLKPEDTAVYYCAAYVFWAFYEYDYWGQGTQVTVSS | low polyreactivity |
| QVQLVESGGGLVQAGGSLRLSCAASFRYNDMGWYRQAPGKERELDAAISSGASTSYPDSVKGRFTISRDNAKNTVYLQMNSLKPEDSAVSYCAAETYELYGLNEYDYWGQGTQVTVSS | low polyreactivity |
| QVQLVESGGGLVQAGGSLRLSCAASGFNFSQYAMGWYRQAPGKERELVAAISSGSTYADSVKGRFTISRDNAKNSVYLQMNSLKREDTAVYYCANDPFSRGSRRYDYWGQGTQVTVSS | low polyreactivity |
| QVQLVESGGGLVQAGGSLRLSCAASGITFPGYAMGWYRQAPGKERELVAAISTSGGSTYYADSVKGRFTISRDNAKNTVYLQMNSLTPDDTAVYYCNARLVYYSYEEMDYWGQGTQVTVSS | low polyreactivity |
| QVQLVESGGGLVQARGSLRLSCAASGSIFYYNTMGSDRQAPGKEREFVAAITYSGGSTYYSDSVKGRFTISRDKAKKTVYLLMNSLKPEDTAVYYCAAYIFYFSGGLNNRGTRGYWGQGTQVTVSS | low polyreactivity |

— the nanobody polyreactivity screen of Harvey et al. (2022)
